Substitutions are numbered along the chain they refer to.
Experiments:
Assay in all cases: fluorescence polarization
Settings in all cases: internal 6-carboxyfluorescein in backbone between U12 and C13 (central tetraloop bases); 25 mM MOPS pH 7.4, 150 mM KCl, 2 mM DTT, 2 mM MgCl2, 0.01% Triton X-100, 1 nM RNA, room temperature, 1 h
[1] = molecular target: T1, RIG-I Q784A/R791A Q784A;R791A (Homo sapiens) (UniProt O95786)
T1 sequence: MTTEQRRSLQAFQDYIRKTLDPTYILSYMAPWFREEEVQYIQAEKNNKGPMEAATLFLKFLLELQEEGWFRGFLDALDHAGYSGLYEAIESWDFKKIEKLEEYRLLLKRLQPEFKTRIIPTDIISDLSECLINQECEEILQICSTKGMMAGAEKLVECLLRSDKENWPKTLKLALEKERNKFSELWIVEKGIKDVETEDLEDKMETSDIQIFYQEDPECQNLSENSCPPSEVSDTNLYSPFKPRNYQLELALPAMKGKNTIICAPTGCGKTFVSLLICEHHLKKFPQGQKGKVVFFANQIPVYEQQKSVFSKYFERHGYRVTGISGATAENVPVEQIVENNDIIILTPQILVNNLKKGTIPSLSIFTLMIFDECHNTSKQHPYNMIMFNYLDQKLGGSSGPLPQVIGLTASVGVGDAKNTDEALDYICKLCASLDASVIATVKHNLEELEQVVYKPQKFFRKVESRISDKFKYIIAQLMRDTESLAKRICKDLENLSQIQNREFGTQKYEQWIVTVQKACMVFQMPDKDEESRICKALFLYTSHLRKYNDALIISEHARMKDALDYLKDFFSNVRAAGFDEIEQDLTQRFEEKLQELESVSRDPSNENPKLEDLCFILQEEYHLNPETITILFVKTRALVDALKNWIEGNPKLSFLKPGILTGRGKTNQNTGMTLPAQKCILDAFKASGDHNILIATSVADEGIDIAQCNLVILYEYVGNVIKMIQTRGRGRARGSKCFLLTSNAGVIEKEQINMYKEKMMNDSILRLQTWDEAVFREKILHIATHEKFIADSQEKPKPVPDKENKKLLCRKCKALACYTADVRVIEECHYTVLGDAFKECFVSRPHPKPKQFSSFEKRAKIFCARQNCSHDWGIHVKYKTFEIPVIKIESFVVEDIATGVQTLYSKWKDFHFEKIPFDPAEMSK

[2] = molecular target: T2, RIG-I K788A/R791A K788A;R791A (Homo sapiens) (UniProt O95786)
T2 sequence: T1 sequence with A784Q, K788A

[3] = molecular target: T3, RIG-I Q784A/K788A Q784A;K788A (Homo sapiens) (UniProt O95786)
T3 sequence: T1 sequence with K788A, A791R

## GGACGUACGUUUCGACGUACGUCC [5'OH10L-F]
[1]
  Kd: 0.0914 µM
[2]
  Kd: 0.166 µM
[3]
  Kd: 0.0858 µM
